The labels stand for the following.
B1: minF1; the commonest letter at each place (parent)
chain: GAGACCGCAACTGAAAAGTTGTTATCAGAAATGGATGGGTTGAATTTCTGCACGTAGAAGCAAAAGGC

This passage reports fraction ligated results from the supplement of paper PMC6755084.

Variants of B1 are the subject of this series. Put plainly: fraction ligated after 30 min (ligated reads / total reads); higher = more ligase activity. The note with it: with F1*subA RNA substrate (template-directed ligation), 42 °C. The method in brief: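 RNAs for minimized ligase ribozyme variants were transcribed with T7 from PCR-amplified oligo-pool templates and purified on gels. Ligated and unligated species were resolved on gels, converted to cDNA with barcoded primers, and read on a MiSeq with core bases filtered at quality ≥30. Fraction ligated per variant is the ratio of ligated reads to total reads.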
GAGACCGCAACTGAAAAGTTGTTATAGGAAATGGATGGGTTGAATTTCTGCACGTAGAAGCAAAAGGC [C26A A27G]: the fraction ligated was 0.481. Consider GAGACCGCAACTGAAAAGTTGTTATACGAAATGGATGGGTTGAATTTCTGCACGTAGAAGCAAAAGGC [C26A A27C], for which the fraction ligated was 0.134. The same measure for GAGACCGCAACTGAAAAGTTGTTATATGAAATGGATGGGTTGAATTTCTGCACGTAGAAGCAAAAGGC [C26A A27T]: 0.0953; for GAGACCGCAACTGAAAAGTTGTTATGAGAAATGCATGGGTTGAATTTCTGCACGTAGAAGCAAAAGGC [C26G G34C]: 0.0293; for GAGACCGCAACTGAAAAGTTGTTATGAGAAATGTATGGGTTGAATTTCTGCACGTAGAAGCAAAAGGC [C26G G34T]: 0.00574. GAGACCGCAACTGAAAAGTTGTTATGAGAAATGAATGGGTTGAATTTCTGCACGTAGAAGCAAAAGGC [C26G G34A]: the fraction ligated worked out at 0.0747. In the case of GAGACCGCAACTGAAAAGTTGTTATGAAAAATGGATGGGTTGAATTTCTGCACGTAGAAGCAAAAGGC [C26G G28A], the fraction ligated came out at 0.0283. GAGACCGCAACTGAAAAGTTGTTATGACAAATGGATGGGTTGAATTTCTGCACGTAGAAGCAAAAGGC [C26G G28C]: the fraction ligated came out at 0.0331. As for GAGACCGCAACTGAAAAGTTGTTATGATAAATGGATGGGTTGAATTTCTGCACGTAGAAGCAAAAGGC [C26G G28T], the fraction ligated stood at 0.0589. As to GAGACCGCAACTGAAAAGTTGTTATGAGAAATAGATGGGTTGAATTTCTGCACGTAGAAGCAAAAGGC [C26G G33A], the fraction ligated was 0.0636. The same measure for GAGACCGCAACTGAAAAGTTGTTATGAGAAATTGATGGGTTGAATTTCTGCACGTAGAAGCAAAAGGC [C26G G33T]: 0.0124; for GAGACCGCAACTGAAAAGTTGTTATGAGAAATCGATGGGTTGAATTTCTGCACGTAGAAGCAAAAGGC [C26G G33C]: 0.00704; for GAGACCGCAACTGAAAAGTTGTTAGCAGAAATGGAGGGGTTGAATTTCTGCACGTAGAAGCAAAAGGC [T25G T36G]: 0.0257. For GAGACCGCAACTGAAAAGTTGTTATGAGACATGGATGGGTTGAATTTCTGCACGTAGAAGCAAAAGGC [C26G A30C], the fraction ligated amounted to 0.0436. Regarding GAGACCGCAACTGAAAAGTTGTTATGAGAGATGGATGGGTTGAATTTCTGCACGTAGAAGCAAAAGGC [C26G A30G], the fraction ligated is 0.0544.

Consider GAGACCGCAACTGAAAAGTTGTTATGAGATATGGATGGGTTGAATTTCTGCACGTAGAAGCAAAAGGC [C26G A30T], for which the fraction ligated came to 0.0435.

GAGACCGCAACTGAAAAGTTGTTATAAGCAATGGATGGGTTGAATTTCTGCACGTAGAAGCAAAAGGC [C26A A29C]: the fraction ligated was 0.0944. For GAGACCGCAACTGAAAAGTTGTTATAAGGAATGGATGGGTTGAATTTCTGCACGTAGAAGCAAAAGGC [C26A A29G], the fraction ligated stood at 0.0844.

On to GAGACCGCAACTGAAAAGTTGTTATAAGTAATGGATGGGTTGAATTTCTGCACGTAGAAGCAAAAGGC [C26A A29T], for which the fraction ligated was found to be 0.112.

For the variant GAGACCGCAACTGAAAAGTTGTTATAATAAATGGATGGGTTGAATTTCTGCACGTAGAAGCAAAAGGC [C26A G28T], the fraction ligated came out at 0.117. With GAGACCGCAACTGAAAAGTTGTTATAACAAATGGATGGGTTGAATTTCTGCACGTAGAAGCAAAAGGC [C26A G28C], the fraction ligated is 0.0637.

Take GAGACCGCAACTGAAAAGTTGTTATAAAAAATGGATGGGTTGAATTTCTGCACGTAGAAGCAAAAGGC [C26A G28A]: the fraction ligated worked out at 0.0578. As to GAGACCGCAACTGAAAAGTTGTTATAAGAAATGTATGGGTTGAATTTCTGCACGTAGAAGCAAAAGGC [C26A G34T], the fraction ligated stood at 0.00758. Regarding GAGACCGCAACTGAAAAGTTGTTATAAGAAATGAATGGGTTGAATTTCTGCACGTAGAAGCAAAAGGC [C26A G34A], the fraction ligated is 0.0394. GAGACCGCAACTGAAAAGTTGTTATAAGAAATGCATGGGTTGAATTTCTGCACGTAGAAGCAAAAGGC [C26A G34C]: the fraction ligated was determined as 0.00194. As for GAGACCGCAACTGAAAAGTTGTTATAAGAAATGGAGGGGTTGAATTTCTGCACGTAGAAGCAAAAGGC [C26A T36G], the fraction ligated amounted to 0.0133.

On to GAGACCGCAACTGAAAAGTTGTTATAAGAAATGGACGGGTTGAATTTCTGCACGTAGAAGCAAAAGGC [C26A T36C], for which the fraction ligated turned out to be 0.00707.

For the variant GAGACCGCAACTGAAAAGTTGTTATAAGAAATGGAAGGGTTGAATTTCTGCACGTAGAAGCAAAAGGC [C26A T36A], the fraction ligated came to 0.0039.

As for GAGACCGCAACTGAAAAGTTGTTATGAGAAGTGGATGGGTTGAATTTCTGCACGTAGAAGCAAAAGGC [C26G A31G], the fraction ligated came to 0.0731. For GAGACCGCAACTGAAAAGTTGTTATGAGAACTGGATGGGTTGAATTTCTGCACGTAGAAGCAAAAGGC [C26G A31C], the fraction ligated stood at 0.0238. Take GAGACCGCAACTGAAAAGTTGTTATGAGAATTGGATGGGTTGAATTTCTGCACGTAGAAGCAAAAGGC [C26G A31T]: the fraction ligated turned out to be 0.0387.

With GAGACCGCAACTGAAAAGTTGTTATAAGAAATGGATGGGTTGATTTTCTGCACGTAGAAGCAAAAGGC [C26A A44T], the fraction ligated is 0.0723.

GAGACCGCAACTGAAAAGTTGTTATAAGAAATGGATGGGTTGACTTTCTGCACGTAGAAGCAAAAGGC [C26A A44C]: the fraction ligated stood at 0.0236. The same measure for GAGACCGCAACTGAAAAGTTGTTATAAGAAATGGATGGGTTGAGTTTCTGCACGTAGAAGCAAAAGGC [C26A A44G]: 0.03; for GAGACCGCAACTGAAAAGTTGTTATGAGAAATGGATGGGTTAAATTTCTGCACGTAGAAGCAAAAGGC [C26G G42A]: 0.00168; for GAGACCGCAACTGAAAAGTTGTTATGAGAAATGGATCGGTTGAATTTCTGCACGTAGAAGCAAAAGGC [C26G G37C]: 0.00497.

As to GAGACCGCAACTGAAAAGTTGTTATGAGAAATGGATTGGTTGAATTTCTGCACGTAGAAGCAAAAGGC [C26G G37T], the fraction ligated came out at 0.00384.

With GAGACCGCAACTGAAAAGTTGTTATGAGAAATGGATAGGTTGAATTTCTGCACGTAGAAGCAAAAGGC [C26G G37A], the fraction ligated is 0.00254.

With GAGACCGCAACTGAAAAGTTGTTATAAGAACTGGATGGGTTGAATTTCTGCACGTAGAAGCAAAAGGC [C26A A31C], the fraction ligated was 0.0417.
